What was measured:
[1] = target: rHuman IGF-1 sR, CF (R&D Systems Cat#391-GR) (human) (UniProt P08069); assay: ECL (MSD multi-spot) screen, antigen spotted on plate, Fab at 0.58 uM; blank spot 403
[2] = target: rHuman HGF R/c-MET/Fc Chimera, CF (R&D Systems Cat#358-MT/CF) (human) (UniProt P08581); assay: as above
[3] = target: rHuman EGF R/Fc Chimera, CF (R&D Systems Cat#344-ER) (human) (UniProt P00533); assay: as above
[4] = target: rHuman ErbB2/Fc Chimera, CF (R&D Systems Cat#1129-ER) (human) (UniProt P04626); assay: as above
[5] = target: rHuman Notch-1/Fc Chimera, CF (R&D Systems Cat#3647-TK) (human) (UniProt P46531); assay: ECL (MSD multi-spot), Fab 36.3 nM; blank 314
[6] = target: rHuman HGF R/c-MET/Fc Chimera, CF (R&D Systems Cat#358-MT/CF) (human) (UniProt P08581); assay: ECL (MSD multi-spot), Fab 36.3 nM; blank 314
[7] = target: rHuman IGF-1 sR (IGF-1 sR), CF (R&D Systems Cat#391-GR) (human) (UniProt P08069); assay: ECL (MSD multi-spot), Fab 36.3 nM; blank 314
[8] = target: rHuman EGF R/Fc Chimera, CF (R&D Systems Cat#344-ER) (human) (UniProt P00533); assay: ECL (MSD multi-spot), Fab 36.3 nM; blank 314
[9] = target: rHuman P-Cadherin/Fc Chimera, CF (R&D Systems Cat#861-PC) (human) (UniProt P22223); assay: ECL (MSD multi-spot), Fab 36.3 nM; blank 314
[10] = target: rHuman ErbB2/Fc Chimera, CF (R&D Systems Cat#1129-ER) (human) (UniProt P04626); assay: ECL (MSD multi-spot), Fab 36.3 nM; blank 314
[11] = target: rHuman Erythropoietin R/Fc Chimera, CF (R&D Systems Cat#963-ER) (human) (UniProt P19235); assay: ECL (MSD multi-spot), Fab 36.3 nM; blank 314
[12] = target: rHuman Notch-1/Fc Chimera, CF (R&D Systems Cat#3647-TK) (human) (UniProt P46531); assay: ECL (MSD multi-spot), Fab 9.1 nM; blank 276
[13] = target: rHuman HGF R/c-MET/Fc Chimera, CF (R&D Systems Cat#358-MT/CF) (human) (UniProt P08581); assay: ECL (MSD multi-spot), Fab 9.1 nM; blank 276
[14] = target: rHuman IGF-1 sR (IGF-1 sR), CF (R&D Systems Cat#391-GR) (human) (UniProt P08069); assay: ECL (MSD multi-spot), Fab 9.1 nM; blank 276
[15] = target: rHuman EGF R/Fc Chimera, CF (R&D Systems Cat#344-ER) (human) (UniProt P00533); assay: ECL (MSD multi-spot), Fab 9.1 nM; blank 276
[16] = target: rHuman P-Cadherin/Fc Chimera, CF (R&D Systems Cat#861-PC) (human) (UniProt P22223); assay: ECL (MSD multi-spot), Fab 9.1 nM; blank 276
[17] = target: rHuman ErbB2/Fc Chimera, CF (R&D Systems Cat#1129-ER) (human) (UniProt P04626); assay: ECL (MSD multi-spot), Fab 9.1 nM; blank 276
[18] = target: rHuman Erythropoietin R/Fc Chimera, CF (R&D Systems Cat#963-ER) (human) (UniProt P19235); assay: ECL (MSD multi-spot), Fab 9.1 nM; blank 276
[19] = target: rHuman Notch-1/Fc Chimera, CF (R&D Systems Cat#3647-TK) (human) (UniProt P46531); assay: ECL (MSD multi-spot), Fab 145 nM; blank 357
[20] = target: rHuman HGF R/c-MET/Fc Chimera, CF (R&D Systems Cat#358-MT/CF) (human) (UniProt P08581); assay: ECL (MSD multi-spot), Fab 145 nM; blank 357
[21] = target: rHuman IGF-1 sR (IGF-1 sR), CF (R&D Systems Cat#391-GR) (human) (UniProt P08069); assay: ECL (MSD multi-spot), Fab 145 nM; blank 357
[22] = target: rHuman EGF R/Fc Chimera, CF (R&D Systems Cat#344-ER) (human) (UniProt P00533); assay: ECL (MSD multi-spot), Fab 145 nM; blank 357
[23] = target: rHuman P-Cadherin/Fc Chimera, CF (R&D Systems Cat#861-PC) (human) (UniProt P22223); assay: ECL (MSD multi-spot), Fab 145 nM; blank 357
[24] = target: rHuman Erythropoietin R/Fc Chimera, CF (R&D Systems Cat#963-ER) (human) (UniProt P19235); assay: ECL (MSD multi-spot), Fab 145 nM; blank 357
[25] = target: rHuman Notch-1/Fc Chimera, CF (R&D Systems Cat#3647-TK) (human) (UniProt P46531); assay: ECL (MSD multi-spot), Fab 580 nM; blank 679
[26] = target: rHuman HGF R/c-MET/Fc Chimera, CF (R&D Systems Cat#358-MT/CF) (human) (UniProt P08581); assay: ECL (MSD multi-spot), Fab 580 nM; blank 679
[27] = target: rHuman IGF-1 sR (IGF-1 sR), CF (R&D Systems Cat#391-GR) (human) (UniProt P08069); assay: ECL (MSD multi-spot), Fab 580 nM; blank 679
[28] = target: rHuman EGF R/Fc Chimera, CF (R&D Systems Cat#344-ER) (human) (UniProt P00533); assay: ECL (MSD multi-spot), Fab 580 nM; blank 679
[29] = target: rHuman P-Cadherin/Fc Chimera, CF (R&D Systems Cat#861-PC) (human) (UniProt P22223); assay: ECL (MSD multi-spot), Fab 580 nM; blank 679
[30] = target: rHuman ErbB2/Fc Chimera, CF (R&D Systems Cat#1129-ER) (human) (UniProt P04626); assay: ECL (MSD multi-spot), Fab 580 nM; blank 679
[31] = target: rHuman Erythropoietin R/Fc Chimera, CF (R&D Systems Cat#963-ER) (human) (UniProt P19235); assay: ECL (MSD multi-spot), Fab 580 nM; blank 679

Sequence of rHuman Erythropoietin R/Fc Chimera, CF (R&D Systems Cat#963-ER) (human) (P19235 25-250, change not shown): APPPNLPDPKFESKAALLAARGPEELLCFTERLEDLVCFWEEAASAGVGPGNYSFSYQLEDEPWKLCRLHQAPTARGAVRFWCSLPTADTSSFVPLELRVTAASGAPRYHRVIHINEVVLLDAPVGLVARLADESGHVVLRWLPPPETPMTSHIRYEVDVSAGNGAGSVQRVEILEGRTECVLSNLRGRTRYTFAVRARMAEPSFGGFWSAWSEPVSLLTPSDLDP

Fab VH4-34_IGHD7-27*01_IGHJ4*01 & V1-4_IGLJ4*01
ECL signal [1]: 1200 | ECL signal [2]: 1710 | ECL signal [3]: 1020 | ECL signal [4]: 1260 | ECL signal [5]: 633 ECL signal | ECL signal [6]: 1060 ECL signal | ECL signal [7]: 799 ECL signal | ECL signal [8]: 831 ECL signal | ECL signal [9]: 684 ECL signal | ECL signal [10]: 1030 ECL signal | ECL signal [11]: 722 ECL signal | ECL signal [12]: 754 ECL signal | ECL signal [13]: 894 ECL signal | ECL signal [14]: 788 ECL signal | ECL signal [15]: 800 ECL signal | ECL signal [16]: 589 ECL signal | ECL signal [17]: 987 ECL signal | ECL signal [18]: 697 ECL signal | ECL signal [19]: 860 ECL signal | ECL signal [20]: 1170 ECL signal | ECL signal [21]: 794 ECL signal | ECL signal [22]: 856 ECL signal | ECL signal [23]: 850 ECL signal | ECL signal [24]: 845 ECL signal | ECL signal [25]: 1580 ECL signal | ECL signal [26]: 2340 ECL signal | ECL signal [27]: 1360 ECL signal | ECL signal [28]: 1630 ECL signal | ECL signal [29]: 2240 ECL signal | ECL signal [30]: 1710 ECL signal | ECL signal [31]: 1580 ECL signal

Reference: patent US20120058906A1
